The assay concerns the target death receptor (DR) 3 on mouse mucosal CD4+ T cells (mouse). Briefly: cell-based or functional assay.

These results are taken from patent US20190211400A1.

As for “TL1A added to mouse MLN and LP mononuclear cell cultures (from UniProt Q5UBV8 76-252) (ligand)”, the numbers of IFN-gamma producing CD4+ cells (intracellular staining of LPMC, without vs. with TL1A) was determined as 1 and the numbers of IL-17-producing CD4+ cells (intracellular staining of LPMC, without vs. with TL1A) is 0.89.
